Measurements published in patent US20250161505A1 (RIPTIDE BIOSCIENCE, published 2025).

B1: Recombinant human CD206 (receptor)
chain: LLDTRQFLIYNEDHKRCVDAVSPSAVQTAACNQDAESQKFRWVSESQIMSVAFKLCLGVPSKTDWVAITLYACDSKSEFQKWECKNDTLLGIKGEDLFFNYGNRQEKNIMLYKGSGLWSRWKIYGTTDNLCSRGYEAMYTLLGNANGATCAFPFKFENKWYADCTSAGRSDGWLWCGTTTDYDTDKLFGYCPLKFEGSESLWNKDPLTSVSYQINSKSALTWHQARKSCQQQNAELLSITEIHEQTYLTGLTSSLTSGLWIGLNSLSFNSGWQWSDRSPFRYLNWLPGSPSAEPGKSCVSLNPGKNAKWENLECVQKLGYICKKGNTTLNSFVIPSESDVPTHCPSQWWPYAGHCYKIHRDEKKIQRDALTTCRKEGGDLTSIHTIEELDFIISQLGYEPNDELWIGLNDIKIQMYFEWSDGTPVTFTKWLRGEPSHENNRQEDCVVMKGKDGYWADRGCEWPLGYICKMKSRSQGPEIVEVEKGCRKGWKKHHFYCYMIGHTLSTFAEANQTCNNENAYLTTIEDRYEQAFLTSFVGLRPEKYFWTGLSDIQTKGTFQWTIEEEVRFTHWNSDMPGRKPGCVAMRTGIAGGLWDVLKCDEKAKFVCKHWAEGVTHPPKPTTTPEPKCPEDWGASSRTSLCFKLYAKGKHEKKTWFESRDFCRALGGDLASINNKEEQQTIWRLITASGSYHKLFWLGLTYGSPSEGFTWSDGSPVSYENWAYGEPNNYQNVEYCGELKGDPTMSWNDINCEHLNNWICQIQKGQTPKPEPTPAPQDNPPVTEDGWVIYKDYQYYFSKEKETMDNARAFCKRNFGDLVSIQSESEKKFLWKYVNRNDAQSAYFIGLLISLDKKFAWMDGSKVDYVSWATGEPNFANEDENCVTMYSNSGFWNDINCGYPNAFICQRHNSSINATTVMPTMPSVPSGCKEGWNFYSNKCFKIFGFMEEERKNWQEARKACIGFGGNLVSIQNEKEQAFLTYHMKDSTFSAWTGLNDVNSEHTFLWTDGRGVHYTNWGKGYPGGRRSSLSYEDADCVVIIGGASNEAGKWMDDTCDSKRGYICQTRSDPSLTNPPATIQTDGFVKYGKSSYSLMRQKFQWHEAETYCKLHNSLIASILDPYSNAFAWLQMETSNERVWIALNSNLTDNQYTWTDKWRVRYTNWAADEPKLKSACVYLDLDGYWKTAHCNESFYFLCKRSDEIPATEPPQLPGRCPESDHTAWIPFHGHCYYIESSYTRNWGQASLECLRMGSSLVSIESAAESSFLSYRVEPLKSKTNFWIGLFRNVEGTWLWINNSPVSFVNWNTGDPSGERNDCVALHASSGFWSNIHCSSYKGYICKRPKIIDAKPTHELLTTKADTRKMDPSK
notes: Bought protein, amine-coupled to a CM5 chip (about 5000 RU)
B2: CD206 mouse protein (receptor)
chain: LDARQFLIYNEDHKRCVDALSAISVQTATCNPEAESQKFRWVSDSQIMSVAFKLCLGVPSKTDWASVTLYACDSKSEYQKWECKNDTLFGIKGTELYFNYGNRQEKNIKLYKGSGLWSRWKVYGTTDDLCSRGYEAMYSLLGNANGAVCAFPFKFENKWYADCTSAGRSDGWLWCGTTTDYDKDKLFGFCPLHFEGSERLWNKDPLTGILYQINSKSALTWHQARASCKQQNADLLSVTEIHEQMYLTGLTSSLSSGLWIGLNSLSVRSGWQWAGGSPFRYLNWLPGSPSSEPGKSCVSLNPGKNAKWENLECVQKLGYICKKGNNTLNPFIIPSASDVPTGCPNQWWPYAGHCYRIHREEKKIQKYALQACRKEGGDLASIHSIEEFDFIFSQLGYEPNDELWIGLNDIKIQMYFEWSDGTPVTFTKWLPGEPSHENNRQEDCVVMKGKDGYWADRACEQPLGYICKMVSQSHAVVPEGADKGCRKGWKRHGFYCYLIGSTLSTFTDANHTCTNEKAYLTTVEDRYEQAFLTSLVGLRPEKYFWTGLSDVQNKGTFRWTVDEQVQFTHWNADMPGRKAGCVAMKTGVAGGLWDVLSCEEKAKFVCKHWAEGVTRPPEPTTTPEPKCPENWGTTSKTSMCFKLYAKGKHEKKTWFESRDFCKAIGGELASIKSKDEQQVIWRLITSSGSYHELFWLGLTYGSPSEGFTWSDGSPVSYENWAYGEPNNYQNVEYCGELKGDPGMSWNDINCEHLNNWICQIQKGKTLLPEPTPAPQDNPPVTADGWVIYKDYQYYFSKEKETMDNARAFCKKNFGDLATIKSESEKKFLWKYINKNGGQSPYFIGMLISMDKKFIWMDGSKVDFVAWATGEPNFANDDENCVTMYTNSGFWNDINCGYPNNFICQRHNSSINATAMPTTPTTPGGCKEGWHLYKNKCFKIFGFANEEKKSWQDARQACKGLKGNLVSIENAQEQAFVTYHMRDSTFNAWTGLNDINAEHMFLWTAGQGVHYTNWGKGYPGGRRSSLSYEDADCVVVIGGNSREAGTWMDDTCDSKQGYICQTQTDPSLPVSPTTTPKDGFVTYGKSSYSLMKLKLPWHEAETYCKDHTSLLASILDPYSNAFAWMKMHPFNVPIWIALNSNLTNNEYTWTDRWRVRYTNWGADEPKLKSACVYMDVDGYWRTSYCNESFYFLCKKSDEIPATEPPQLPGKCPESEQTAWIPFYGHCYYFESSFTRSWGQASLECLRMGASLVSIETAAESSFLSYRVEPLKSKTNFWIGMFRNVEGKWLWLNDNPVSFVNWKTGDPSGERNDCVVLASSSGLWNNIHCSSYKGFICKMPKIIDPVTTHSSITTKADQRKMDPQPKGSSKA
notes: Bought protein coated on a 96 well plate (1 ug per well); also called mouse CD206 protein; murine CD206

How the values were obtained:
DOTA-MART-1 = target: T1, DOTA-MART-1 (conjugated with the chelator DOTA (no radiometal stated); attachment site not stated); assay: SPR (Biacore T200), CD206 immobilized on CM5 chip, peptide as analyte
T1 construct: also called MART-1 peptide with DOTA

[68Ga]MART-1 = target: T2, [68Ga]MART-1 (conjugated with the chelator DOTA complexed with 68Ga; attachment site not stated); assay: protein plate binding assay on coated mouse CD206, gamma counting
T2 construct: Synthetic control peptide with DOTA, radiolabeled with 68Ga under the same conditions as RP832c; also called 68Ga-labeled DOTA-MART-1; control tracer

Row | Binder | binding result (DOTA-MART-1) | binding result ([68Ga]MART-1)
1 | B1 | no binding (tested: 0.5 uM-10 uM) | 
2 | B2 |  | no binding (tested: 50 nM)
